This is an account of results in patent US20190161756, “Anti-Immunoglobulin G Aptamers and Uses Thereof” (Laboratoire Francais du Fractionnement et des …, published 2019).

Details in all cases: chain copies: 2; label: biotin
In data set [1] the target is T1, IgG4 (plasma IgG sub-class) (Homo sapiens, UniProt P01861-1 P01861-1:1-327). In words: SPR; pH 5.5; resistant to 2 M NaCl. In general terms: SPR reads the build-up and loss of mass on a sensor chip optically.
In data set [2] the target is T1, IgG4 (plasma IgG sub-class). In words: SPR; pH 5.5; faster association, partly eluted by 2 M NaCl. The procedure: (§1) Plasma IgG's sub-classes were injected at pH 5.5 (in duplicates), whereby a complex was formed as evidenced by the increase of the signal. […] The solid support was then regenerated by injection of a solution of NaOH at 50 mM. X-axis: time in s. Y-axis: SPR response in arbitrary scale.
(§2) The selected aptamer was synthetized with Biotin and a triethylene glycol spacer at the 5′ end of the oligonucleotide. A 1 μM solution of the aptamer was prepared using the SELEX selection buffer. The aptamer solution was heated to 90° C. for 5 min, incubated on ice for 5 min and equilibrated to room temperature for 10 min. The preparation was injected on a streptavidin coated sensor chip SA of Biacore T200 instrument (GE Healthcare) at a flow rate of 10 μl/min for 7 min. Then, different concentrations of the target (Human polyclonal IgG, purified from human plasma with a purity of >95%) were injected to the immobilised aptamer at 30 μl/min for 1 minute. After dissociation for 1-2 min a wash step was performed by injecting a suitable wash buffer at 30 μl/min for 1 min. For elution, a suitable elution buffer was injected at 30 μl/min for 1-2 min Finally the sensor chip was regenerated by injection of 50 mM NaOH at 30 μl/min for 30 sec. During the course of the experiment the response signal was recorded in a sensorgram.

The target is the same in data set [3]. In words: SPR; pH 5.5; resistant to 2 M NaCl. The procedure:
as §1, §2
The source holds these as a separate data set.

T1 sequence (P01861 other isoform, or with tags, fused parts or gaps): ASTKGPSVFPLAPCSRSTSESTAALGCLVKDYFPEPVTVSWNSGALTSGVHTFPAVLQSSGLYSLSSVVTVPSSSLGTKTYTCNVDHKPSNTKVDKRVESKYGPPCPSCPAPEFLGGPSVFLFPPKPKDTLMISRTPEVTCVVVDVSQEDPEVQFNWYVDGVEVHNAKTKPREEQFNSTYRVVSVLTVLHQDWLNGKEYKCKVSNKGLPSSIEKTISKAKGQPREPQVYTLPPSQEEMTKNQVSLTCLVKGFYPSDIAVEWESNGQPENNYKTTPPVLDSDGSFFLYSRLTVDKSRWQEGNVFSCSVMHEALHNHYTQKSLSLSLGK

B1: A6-4 (ssDNA)
DNA: GGGTCAATGCCAGGTCTCAAGTTTGTGGGGCTGGGGTTCGGTCCTGGCACAAATTCGTATCGGCTCGCAAGCAGTC
modifications: 5' biotin-triethylene glycol spacer
Consider B1, for which the binding result in data set [1] is “binds”.

B2: A6-3 (ssDNA)
DNA: GGGTCAATGCCAGGTCTCGACTATTCCTCCGGCCTCTTCCCTAATCAGTGGCATCTCTATCGGCTCGCAAGCAGTC
modifications: 5' biotin-triethylene glycol spacer
For the molecule B2, in data set [2], the binding result was “binds”.

B3: A6-8 (ssDNA)
DNA: GGGTCAATGCCAGGTCTCCACGGTATAGTCTCGCCCAGTGCCCTTTGTTGGACTTCCTATCGGCTCGCAAGCAGTC
modifications: 5' biotin-triethylene glycol spacer
In the case of B3, the binding result in data set [3] was “binds”.

B4: A6-2 (ssDNA)
DNA: GGGTCAATGCCAGGTCTCCCCAGCCTCATCTCACGGCATAGTCTCGCCACACTGGAAATCGGCTCGCAAGCAGTC
modifications: 5' biotin-triethylene glycol spacer (SPR); 5' amino-C6 spacer and 3' idT (chromatography)
Take B4: in data set [1], the binding result is listed as “binds”.
